“And” between values parts separate entries of the source, which are not always exact repeats. Equal entries are not always repeated. Where two headings read alike, the source gives them in different places.

To fix the notation:
B2: Lactococcus lactis Csm3 Asp30Ala (natural protein)
chain: MKLVIEGTIVLKTGMHIGGSSDFSAIGAVASPVVRDTLTRLPLIPGSSLKGKMRYLLAKELNNGILLNEPNNDQDEILRLFGSSEKDKIRRARLKFNDIKLSNLAELETFNVSSTEVKFENTINRKTAVANPRQIERVIAGSKFDFEIFYNLDDIKEVEKDFENIKQGFDLLEFDYLGGHGTRGSGRIAFENLSVITAVGNFEKINTLNEILGA

What all share (assay): cryo-EM structure
The target of data set [1] is B2.
Data set [2] concerns the molecule itself.
Data set [3] deals with the molecule itself. The source holds these as a separate data set.

B1: Lactococcus lactis Csm2 with N-terminal His6-tag (natural protein)
chain: TELKIGNEKVNSTNFGDFAEKAIRGINHKPFVNSKGGEQKITTSKIRGILELVNKVYNRVINTNDVELSENILADIAYIKVKIAYESGREPVVKDFIQRTAFTAAITDVMNQRTRESFLLFARYVESLIAYFKFYGGKD
In general, stoichiometry N refers to a count of units in the complex or per binding partner. Take B1: in data set [1], the binding result is given as “binds”. Also, in data set [2], the “stoichiometry N” value is 3 and 2.

In the case of B2, the “stoichiometry N” value in data set [3] was found to be 4; in data set [2] it was 3.

For the origin of these results see doi:10.1101/2021.01.27.428455 (bioRxiv, 2021).
